According to patent US8106168B2, “Metalloproteinase binding proteins” (Dyax Corp., priority 2005, dated 2012):
Each block holds one molecule with its values, some of them ahead of it.

Legend:
MMP-24 [1] = target: T1, MMP-24 (Homo sapiens, UniProt Q9Y5R2); experiment: Cross-reactivity of anti-MMP-14 IgGs, enzymatic activity: MMP-24; assay type: biochemical; settings: 1 μM anti-MMP-14 IgG
Description: (§1) The cross-reactivity of exemplary anti-MMP-14 IgGs and Fabs with other human MMPs and TACE (TNF-alpha converting enzyme) was examined. MMP and TACE enzymatic activity was monitored in the absence and presence of 1 μM anti-MMP-14 IgG antibody. Inhibition (Y) of activity ranged from approximately 50-80% of the reaction rate observed in the absence of antibody. “X” indicates no inhibition was observed. Cross-reactivity was not determined for MMP-17 because protein activity could not be detected.
(§2) For the studies summarized in Table 12, six anti-MMP-14 IgGs were selected for cross-reactivity testings: M0043-G02, M0040-A06, M0037-D01, M037-C09, M0038-F01, M0033-H07.

MMP-16 [2] = target: T2, MMP-16 (Homo sapiens, UniProt P51512); experiment: Cross-reactivity of anti-MMP-14 IgGs, enzymatic activity: MMP-16; assay type: biochemical; settings: 1 μM anti-MMP-14 IgG
Description: as §1, §2

MMP-14 [3] = target: T3, MMP-14 (Homo sapiens, UniProt P50281); experiment: IC50 for MMP-14 inhibition by Fabs and IgGs; assay type: biochemical; settings: Fab
Description: MMP-14 binding proteins can be characterized in assays that measure their modulatory activity toward MMP-14 or fragments thereof in vitro or in vivo. For example, MMP-14 can be combined with a substrate such as Mca-Pro-Leu-Ala-Cys(Mob)-Trp-Ala-Arg-Dap(Dnp)-NH2 under assay conditions permitting cleavage by MMP-14. The assay is performed in the absence of the MMP-14 binding protein, and in the presence of increasing concentrations of the MMP-14 binding protein. The concentration of binding protein at which 50% of the MMP-14 activity (e.g., binding to the substrate) is inhibited is the IC50 value (Inhibitory Concentration 50%) or EC50 (Effective Concentration 50%) value for that binding protein.

MMP-16 [4] = target: T2, MMP-16; experiment: Cross-reactivity of Fabs with MMP-16 (Example 9); assay type: biochemical; design: key: X: Do not inhibit MMP-16 or MMP-24 at [I] = 100 nM level; Y: partially inhibit at [I] = 100 nM level; settings: Fab, 100 nM final inhibitor concentration, 5 nM MMP-16
Description: (§3) For the studies summarized in Table 15, 1 μM of anti-MMP-14 Fab/IgG (100 nM final inhibitor concentration) were incubated with 5 nM of MMP-16 or 5 nM of MMP-24 for 30 minutes at 30° C., 10 μM of substrate was added, and the MMP-16 activity was measured.

MMP-16 [5] = target: T2, MMP-16; experiment: Cross-reactivity of Fabs and IgGs with MMP-16 (Example 8); assay type: biochemical; design: key to MMP-16 (cross-reactivity, class symbol): X: Does not inhibit MMP-16 at [I] = 100 nM level; settings: 5 nM MMP16, 30 minutes at 30° C., 10 μM substrate
Description: For the studies summarized in Tables 13 and 14, 100 nM anti-MMP-14 Fab/IgG were incubated with 5 nM MMP16 for 30 minutes at 30° C., 10 μM of substrate was added, and the MMP-16 activity was measured.

MMP-24 [6] = target: T1, MMP-24; experiment: Cross-reactivity of Fabs with MMP-24 (Example 9); assay type: biochemical; settings: Fab, 100 nM final inhibitor concentration; 5 nM MMP-24
Description: as §3

MMP-14 [7] = target: T3, MMP-14; experiment: Selection and phage ELISA screening of anti-MMP-14 Fabs; assay type: binding; settings: Fab from FAB310 phage display library
Method in brief: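 Phage ELISA screened 95 clones from each of rounds 2 and 3 against biotinylated MMP-14 (1 μg/ml) captured on streptavidin, in TRIS/CaCl2/NaCl pH 7.5. The clones came from Fab library selections on biotinylated MMP-14, either free or TIMP-2-complexed (500 nM round 1, 100 nM later rounds). Elution used 2.5 μM TIMP-2 followed by TEA.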

T1 sequence (Q9Y5R2 156-645): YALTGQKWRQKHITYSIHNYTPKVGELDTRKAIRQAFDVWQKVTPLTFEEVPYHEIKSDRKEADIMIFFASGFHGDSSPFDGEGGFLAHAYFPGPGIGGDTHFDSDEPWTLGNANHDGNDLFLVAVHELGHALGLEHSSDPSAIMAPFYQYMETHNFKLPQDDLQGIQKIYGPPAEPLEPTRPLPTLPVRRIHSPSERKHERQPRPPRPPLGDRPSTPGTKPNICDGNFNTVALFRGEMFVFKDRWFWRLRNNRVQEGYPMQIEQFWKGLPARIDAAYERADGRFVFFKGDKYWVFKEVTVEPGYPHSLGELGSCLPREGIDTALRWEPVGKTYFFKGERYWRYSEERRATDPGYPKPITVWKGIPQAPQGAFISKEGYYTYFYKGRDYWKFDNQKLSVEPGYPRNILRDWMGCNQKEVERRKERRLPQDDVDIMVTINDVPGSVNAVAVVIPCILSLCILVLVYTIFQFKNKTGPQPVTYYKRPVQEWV
T2 sequence (P51512 120-607): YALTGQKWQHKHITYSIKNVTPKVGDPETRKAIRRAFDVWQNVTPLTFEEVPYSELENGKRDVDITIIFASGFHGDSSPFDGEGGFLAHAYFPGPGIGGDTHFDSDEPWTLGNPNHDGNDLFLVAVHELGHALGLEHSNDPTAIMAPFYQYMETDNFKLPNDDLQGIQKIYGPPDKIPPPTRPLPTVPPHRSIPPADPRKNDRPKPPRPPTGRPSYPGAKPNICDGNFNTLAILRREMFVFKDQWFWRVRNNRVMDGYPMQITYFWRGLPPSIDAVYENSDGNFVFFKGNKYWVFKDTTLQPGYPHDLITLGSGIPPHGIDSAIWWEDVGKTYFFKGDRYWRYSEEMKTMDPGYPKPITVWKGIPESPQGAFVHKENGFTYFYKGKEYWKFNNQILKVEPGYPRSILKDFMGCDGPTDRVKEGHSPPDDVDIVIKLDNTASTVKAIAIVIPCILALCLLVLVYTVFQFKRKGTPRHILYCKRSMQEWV

bind to and inhibit human MMP-14 (MMP-14 [3]): bind to and inhibit human MMP-14
MMP-16 (cross-reactivity, class symbol) (MMP-16 [4]): X
MMP-16 (cross-reactivity, class symbol) (MMP-16 [5]; Fab 100 nM): X
MMP-16 (cross-reactivity, class symbol) (MMP-16 [5]; IgG 100 nM): X
MMP-24 inhibition (MMP-24 [6]): Y 71% inhibition
bind to human MMP-14 (MMP-14 [7]): bind to human MMP-14
B1: M0037-D01: human antibody (Fab, IgG) that binds and inhibits MMP-14; HC SEQ ID NO: 152, LC SEQ ID NO: 153 (antibody, V domains shown)
VH: EVQLLESGGGLVQPGGSLRLSCAASGFTFSMYMMIWVRQAPGKGLEWVSSIYPSGGNTMYADSVKGRFTISRDNSKNTLYLQMNSLRAEDTAVYYCATGVLRYFDWDAGSGMDVWGQGTTVTVSSLC
VL: QDIQMTQSPSSLSASVGDRVTITCRASQGIRNDLGWYQQKPGKAPKRLIYVASSLQSGVPSRFSGSGSGTEFTLTISSLQPEDFATYYCLQHNSYPWTFGQGTKVEIK
modifications: Synthetically generated peptide
Cross reactivity: inhibition of MMP-24 activity (MMP-24 [1]): Y (Inhibition (Y) of activity ranged from approximately 50-80% of the reaction rate observed in the absence of antibody)
Cross reactivity: inhibition of MMP-16 activity (MMP-16 [2]): Y (Inhibition (Y) of activity ranged from approximately 50-80% of the reaction rate observed in the absence of antibody)

bind to and inhibit human MMP-14 (MMP-14 [3]): bind to and inhibit human MMP-14
MMP-16 (cross-reactivity, class symbol) (MMP-16 [4]): X
MMP-16 (cross-reactivity, class symbol) (MMP-16 [5]; Fab 100 nM): X
MMP-16 (cross-reactivity, class symbol) (MMP-16 [5]; IgG 100 nM): X
MMP-24 inhibition (MMP-24 [6]): Y 72% inhibition
bind to human MMP-14 (MMP-14 [7]): bind to human MMP-14
B2: M0037-C09: human antibody (Fab, IgG) that binds and inhibits MMP-14; HC SEQ ID NO: 150, LC SEQ ID NO: 151 (antibody, V domains shown)
VH: EVQLLESGGGLVQPGGSLRLSCAASGFTFSHYEMFWVRQAPGKGLEWVSSISPSGGQTHYADSVKGRFTISRDNSKNTLYLQMNSLRAEDTAVYYCATDRTYYDFWSGYGPLWYWGQGTLVTVSS
VL: QDIQMTQSPLSLPVTLGESASVSCRSSQSLLHENGHNYLDWYLQKPGQSPQLLIYLGSNRASGVPDRFSGSGSGTDFTLKISRVEAEDVGVYYCMQSLKTPPTFGPGTKVEIK
modifications: Synthetically generated peptide
Cross reactivity: inhibition of MMP-24 activity (MMP-24 [1]): Y (Inhibition (Y) of activity ranged from approximately 50-80% of the reaction rate observed in the absence of antibody)
Cross reactivity: inhibition of MMP-16 activity (MMP-16 [2]): Y (Inhibition (Y) of activity ranged from approximately 50-80% of the reaction rate observed in the absence of antibody)

bind to and inhibit human MMP-14 (MMP-14 [3]): bind to and inhibit human MMP-14
MMP-16 (cross-reactivity, class symbol) (MMP-16 [4]): X
MMP-16 (cross-reactivity, class symbol) (MMP-16 [5]; Fab 100 nM): X
MMP-16 (cross-reactivity, class symbol) (MMP-16 [5]; IgG 100 nM): X
MMP-24 inhibition (MMP-24 [6]): Y 54% inhibition
bind to human MMP-14 (MMP-14 [7]): bind to human MMP-14
B3: M0031-C02: human antibody (Fab, IgG) that binds and inhibits MMP-14; HC SEQ ID NO: 144, LC SEQ ID NO: 145 (antibody, V domains shown)
VH: EVQLLESGGGLVQPGGSLRLSCAASGFTFSPYPMGWVRQAPGKGLEWVSSIVSSGGLTLYADSVKGRFTISRDNSKNTLYLQMNSLRAEDTAVYYCARGGRLYDILTGQGAPFDYWGQGTLVTVSS
VL: QDIQMTQSPLSLPVTPGEPASISCRSSQSLLHSNGYYYLDWYLQKPGQSPQLLIYLGSYRASGVPDRFSGSGSGTDFTLKISSVEAEDVGVYYCMQALQTPLTFGGGTRVDIK
modifications: Synthetically generated peptide
